Experimental data as given in the supplement of paper PMC12764529.
± gives the half width of the 95% confidence interval.

Experiments:
[1] = folding stability dG unfold from trypsin proteolysis; higher = more stable
In short: (§1)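 Bayesian fitting of sequencing counts gave K50 for each design. Unfolding free energy followed by setting this against a sequence-predicted unfolded-state K50 and a shared folded-state K50, either per protease or with trypsin and chymotrypsin combined. The designs, under 80 residues and lacking cysteine, were digested in a PA-tagged cDNA display format at 11 threefold-diluted protease concentrations and without protease, and only those with AlphaFold2 dimer inter-PAE above 15 were kept.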

[2] = folding stability dG unfold (combined trypsin and chymotrypsin); higher = more stable
In short: as §1

[3] = folding stability dG unfold from chymotrypsin proteolysis; higher = more stable
In short: as §1

Sequence	folding stability dG unfold [1] [kcal/mol]	folding stability dG unfold [2] [kcal/mol]	folding stability dG unfold [3] [kcal/mol]
SAGGSAGGSAGDAPPGATLTLNIELELTLKVVDPSTGELVEERKLRIPLTLTYVLDDDDLSAGGSAGGSAGG [r11_970_TrMRF]	3.15 ± 0.42	3.8 ± 0.43	4.24 ± 0.13
SAGMGLVGRTKDGKWIPAADLTEEQLKDMELDLGEPLPPVVVKVEVEWKLSPEDKLEVKLKVEVFVEGSAGG [r19_232_TrMRF]	1.02 ± 0.15	2.17 ± 0.2	2.87 ± 0.07
SAGGMKTVTIEYWGSLPDAVVLAKKAVEEAAKNKGKTVVTLYVWEGEPDENGVPRWKPLGKYVFVVDASAGG [r13_974_TrMRF]	2.44 ± 0.092	3.19 ± 0.1	3.477 ± 0.034
SAGGSAGGSAKEILIVMTPEEAEELKKELLEKLKELAKKLKIKEIKIKVYLVKYDKNGKKVSAGGSAGGSAG [r3_89_TrROS_Hall]	1.9 ± 0.12	2.26 ± 0.28	2.66 ± 0.091
SAGGSAGGMEVVERVVKLPDGTELRITIERDPEKDTAKVTITDPTTSETRTLDVTSEEEALELLSAGGSAGG [r6_465_JUSTAS]	2.31 ± 0.068	1.93 ± 0.037	1.56 ± 0.032
SAGGSAGGSAGMVVETSKNPPTSDTVVTTLVPSPNSTTVTTTIVSPDPNTIKETTTTPTPSAGGSAGGSAGG [r11_100_JUSTAS]	2.41 ± 0.064	1.8 ± 0.034	1.23 ± 0.019
SAGGSAGGSSDEPLVIPVTAVFVNPETGEVTVARAEVRLPPDGGLEVDVEVEVREVEPDAPLLSAGGSAGGS [r12_116_TrMRF]	0.964 ± 0.025	1.2 ± 0.14	1.47 ± 0.036
SAGGMSVTFEKEDKTYVITFEPSPEGGYLVTLEVLDPKTGEAKPVATAEFTEGSLEDAVVALLAAEESAGGS [r16_378_TrMRF]	4.08 ± 0.3	3.7 ± 0.12	3.67 ± 0.08
SAGGSAKTITIEVKVEKTKDGKIKKGEIVKVEIEVDEKTKKVKIKIYNKNGELIAEIEIELSPEDLSAGGSA [r15_134_TrROS_Hall]	1.34 ± 0.21	2.81 ± 0.39	2.95 ± 0.16
SAGGSAGGSAGMRIRAEVVEISPPGAVIVLRYEIEFPLPDDEPVRLEFDAVLYIPVPPEASAGGSAGGSAGG [r11_689_TrMRF]	2.63 ± 0.12	3.69 ± 0.13	4.16 ± 0.098
SMIPVEELVRLAAERLGLPEEELENIEEVEPFEVEPLPDNAVRVKLRIRLKNPESDEVTELDIEIVDPGGSA [r9_230_TrMRF]	1.2 ± 0.021	1.92 ± 0.072	2.21 ± 0.033
SAGKIVIDKDNMKVYVTLPNGKKIELSLEELKKLLEELKKEGKPLTAEEIAEKLKKEFPGAEVEIVPVSAGG [r19_46_TrROS_Hall]	2.38 ± 0.086	3.69 ± 0.083	4.01 ± 0.064
SAGWHEIEIEIMIPFPKENAEELAKEIAEEIARMHGFKITNIEVQVYPTDGEYYVMIPVKIRIPPPNDTSAG [r14_219_TrROS]	2.81 ± 0.061	3.05 ± 0.11	3.15 ± 0.056
SMLIVAEGDTVTVELIATYTVVERDPDDPNRYTLRAFPLPLTFTVDPNDPEALRRFLEAAPPGFTPVIVGSA [r9_476_TrMRF]	2.62 ± 0.092	3.17 ± 0.13	3.43 ± 0.039
SAGGSAGGSMKVYRIKIEVDGKTYEIEVEMSEEEVKKLAEELGIKDVKIKKVEIEPVEEVEEKSAGGSAGGS [r12_292_TrROS_Hall]	0.859 ± 0.18	1.92 ± 0.21	2.07 ± 0.1
SAGGSAGGSAGDKGYVMVTFPIEMTQYVYDPDGKPIGQHKHEMPITVMIPPNAAKKLLQASAGGSAGGSAGG [r11_620_TrROS]	0.186 ± 0.067	0.592 ± 0.07	0.773 ± 0.062
SAGGSAGGSAGEEVILRIKVKLKNGEERTIEINMTLDELLAELPENVTEIKIEAIPKEDLSAGGSAGGSAGG [r11_596_TrROS_Hall]	1.29 ± 0.052	1.46 ± 0.079	1.54 ± 0.017
SAPVRGPDGSVFEVDDITFDPDTRTVTVTTPEGTYTFPVPPGWVVEFDPVTKEITVRPLPDLSPENNPFPSA [r9_551_TrMRF]	2.54 ± 0.15	2.79 ± 0.097	2.84 ± 0.06
SAGMDDAEAEKLALEEAEKIAKEAGVPEIEVEVERTPSDRWRATIKFPKTGKTYTIELVGDEPSLVEKGSAG [r14_925_JUSTAS]	1.01 ± 0.049	1.1 ± 0.14	1.27 ± 0.2
SAGGSAGNPVPKVTVTDVTFGIPESDPSLLEKKAEEVAAELNKPELTVTITEYDPATYTFTITVVSSAGGSA [r15_563_JUSTAS]	0.648 ± 0.021	1.48 ± 0.059	1.89 ± 0.07
SAGRVRLEIVIMIPIDPEQLENLPPSIRDPNGMEIYENGDMIMIKMPIPIPPPPVPDPDGKKMTPEELSAGG [r19_148_TrROS]	1.44 ± 0.052	0.982 ± 0.24	0.493 ± 0.11

Sequence	folding stability dG unfold [1] [kcal/mol]	folding stability dG unfold [2] [kcal/mol]	folding stability dG unfold [3] [kcal/mol]
SAGGSANLAETPPVTTTETIEIKVPDPGKPLPITEEDVKKKYEGKNTKVEISVEGDKVIITITTKESAGGSA [r15_377_JUSTAS]	0.407 ± 0.054	0.68 ± 0.24	0.871 ± 0.094
SAGGSAKEIKIEVVKVEYDKETKKVTVTLKIEVNGKKIEIKIEVDMTPEEVEEKVKKLAEELLKKLSAGGSA [r15_979_TrROS_Hall]	3.15 ± 0.2	3.14 ± 0.25	3.03 ± 0.14
SAGGSAGGSAGSFLIVVRFPNSTVLFDAPEDTDVDALKKAIKKLFNADIEVEVVPKEKPLSAGGSAGGSAGG [r11_805_TrMRF]	1.75 ± 0.058	1.79 ± 0.093	1.55 ± 0.051
SAGGLTVVSVDPSTNTITIKLGNKDIEITVPPDRPPEVTFTRDPSGTYTITITTEGSTTTYTIPLSQLPSAG [r5_500_JUSTAS]	2.45 ± 0.052	2.85 ± 0.07	3.143 ± 0.015
SAGGSAGGSKKVYLKVTVYHKNGKKTTLEIGPITDEDGKPIETYAKELAEHPDVEKVEVEVLGSAGGSAGGS [r12_199_TrMRF]	3.79 ± 0.13	4.05 ± 0.17	4.19 ± 0.13
SAGGSAGGSMIVETEVEEGDGSAVTKTFYPDSVTTTVNTPDEVTVEKTFPDGTVETTTVPLSPSAGGSAGGS [r12_507_JUSTAS]	0.607 ± 0.028	0.896 ± 0.086	0.967 ± 0.031
SAGGSAGGSGMELEKLLESVKEVKVEPTSSGEKEVTITLKPPEPSETEVKIDKETYEKLLELKSAGGSAGGS [r12_466_JUSTAS]	-0.907 ± 0.21	0.137 ± 0.12	0.404 ± 0.024
SAGGSAGGSAKAVEFYFPAEEYTVEEIIDRLVKELGVPKENIKLAKVEPLENGELKVIVEIPSAGGSAGGSA [r18_118_TrMRF]	2.82 ± 0.11	3.1 ± 0.092	3.21 ± 0.12
SKVTIYFPNMPPEEIIDAIRKNPGKPVEIWMMPNNPDRFKNWLQDAKIEVEPQPNPDGQPWVKMEIEVPDSA [r9_1138_TrROS]	0.571 ± 0.035	0.794 ± 0.078	0.969 ± 0.095
SAGGSAGGKPPKPPKKVTITVTITFTLEDGKTVTVTAKITFLPDGTIKIEITYPDGSKLTLTFPSAGGSAGG [r6_109_TrROS_Hall]	3.75 ± 0.35	4.59 ± 0.23	4.81 ± 0.18
SAGGSAMPILTDTVYEIPVDRSPDETEEEIKEYLKELLLKKLPPGTEVKLEVKFDPETGTVTVKVVSAGGSA [r15_739_JUSTAS]	1.96 ± 0.12	1.58 ± 0.12	0.972 ± 0.037
SAGGVIELPNAGLPEFLAFLKEAAEKGIPNVTVILTGPSKPYLAIYDPKKNIVTVLHPNGKTYTFKASAGGS [r16_481_TrMRF]	2.76 ± 0.15	2.91 ± 0.12	2.99 ± 0.058
SAGGPDDMKIIEETTIRFPENGMQFNIRIYKLPDNDVFIEAEMIMPNGKPVGRMEARVPNGKPIEIPFSAGG [r13_573_TrROS]	0.854 ± 0.04	1.36 ± 0.087	1.64 ± 0.12
SAGGSAGGSAGGSGMSVKREVLEVEEFPGPGRVVRVLERVTLPDGTELLREIEEVIDLLSAGGSAGGSAGGS [r4_50_JUSTAS]	0.219 ± 0.068	0.871 ± 0.058	1.12 ± 0.049
SEVVLEVKVEVRVKRNENGELEVEVKVEVKLVELEPPEPRIELSEEEREKLKEEAEKLGLELTDEELEALSA [r9_487_TrROS_Hall]	1.9 ± 0.13	1.75 ± 0.2	1.87 ± 0.15
SAGGSAGGSASIEITVKTKEEAKALAEALAKAGLVEVETLPDGSVKITVKPVKVEEVLKPPESAGGSAGGSA [r18_126_TrROS_Hall]	1.66 ± 0.096	2.17 ± 0.29	2.61 ± 0.22
SAGGAPLSSSEEVEALLKEGGAEFVSKTSVTITEPGVPVTVNVYTIRVKDPSSDKWTLVEVPSSLLSSAGGS [r16_271_JUSTAS]	0.192 ± 0.12	0.409 ± 0.15	0.429 ± 0.2
SAGGEIEVEVLEVDPETGEVLLKITFDAEPEVIDFLVSLGFDPEHISDDGDGKVTAIVRAPPDLTIASAGGS [r16_755_TrMRF]	2.21 ± 0.087	2.79 ± 0.09	3.02 ± 0.061
SASITHTVPGVQVRAYLNPDGYMFIQVYNPNDGEPKQPIWMPPDHITDVEVTGDWVKITIKMDPEDFKLSAG [r14_755_TrROS]	1.25 ± 0.052	2.06 ± 0.16	2.32 ± 0.08
SAGGSAGGRTLRIMVPMDSPEDAVEQAKEIVRELGLPPNFKIDDINVHRNPNGRYQVMVKIRVNSAGGSAGG [r6_284_TrROS]	1.05 ± 0.052	1.35 ± 0.064	1.5 ± 0.07
SAGGSAGGSAGTRTITIFIPVPPGKMTPEDALDFIKPFFPDVKIEVEPVNNYYAIEITVKSAGGSAGGSAGG [r11_7_TrROS]	1.17 ± 0.056	1.04 ± 0.15	0.825 ± 0.045
